Laboratory results from patent publication US6987089 (dated 2006).

T1: ASK1 wild-type, full length (apoptosis signal-regulating kinase 1), in vitro translated and … (UniProt Q99683 1-1374, 35S-methionine label)
T1 construct: range 1-1375; also called full length ASK1; 35S-labeled ASK1
T1 sequence (looked up): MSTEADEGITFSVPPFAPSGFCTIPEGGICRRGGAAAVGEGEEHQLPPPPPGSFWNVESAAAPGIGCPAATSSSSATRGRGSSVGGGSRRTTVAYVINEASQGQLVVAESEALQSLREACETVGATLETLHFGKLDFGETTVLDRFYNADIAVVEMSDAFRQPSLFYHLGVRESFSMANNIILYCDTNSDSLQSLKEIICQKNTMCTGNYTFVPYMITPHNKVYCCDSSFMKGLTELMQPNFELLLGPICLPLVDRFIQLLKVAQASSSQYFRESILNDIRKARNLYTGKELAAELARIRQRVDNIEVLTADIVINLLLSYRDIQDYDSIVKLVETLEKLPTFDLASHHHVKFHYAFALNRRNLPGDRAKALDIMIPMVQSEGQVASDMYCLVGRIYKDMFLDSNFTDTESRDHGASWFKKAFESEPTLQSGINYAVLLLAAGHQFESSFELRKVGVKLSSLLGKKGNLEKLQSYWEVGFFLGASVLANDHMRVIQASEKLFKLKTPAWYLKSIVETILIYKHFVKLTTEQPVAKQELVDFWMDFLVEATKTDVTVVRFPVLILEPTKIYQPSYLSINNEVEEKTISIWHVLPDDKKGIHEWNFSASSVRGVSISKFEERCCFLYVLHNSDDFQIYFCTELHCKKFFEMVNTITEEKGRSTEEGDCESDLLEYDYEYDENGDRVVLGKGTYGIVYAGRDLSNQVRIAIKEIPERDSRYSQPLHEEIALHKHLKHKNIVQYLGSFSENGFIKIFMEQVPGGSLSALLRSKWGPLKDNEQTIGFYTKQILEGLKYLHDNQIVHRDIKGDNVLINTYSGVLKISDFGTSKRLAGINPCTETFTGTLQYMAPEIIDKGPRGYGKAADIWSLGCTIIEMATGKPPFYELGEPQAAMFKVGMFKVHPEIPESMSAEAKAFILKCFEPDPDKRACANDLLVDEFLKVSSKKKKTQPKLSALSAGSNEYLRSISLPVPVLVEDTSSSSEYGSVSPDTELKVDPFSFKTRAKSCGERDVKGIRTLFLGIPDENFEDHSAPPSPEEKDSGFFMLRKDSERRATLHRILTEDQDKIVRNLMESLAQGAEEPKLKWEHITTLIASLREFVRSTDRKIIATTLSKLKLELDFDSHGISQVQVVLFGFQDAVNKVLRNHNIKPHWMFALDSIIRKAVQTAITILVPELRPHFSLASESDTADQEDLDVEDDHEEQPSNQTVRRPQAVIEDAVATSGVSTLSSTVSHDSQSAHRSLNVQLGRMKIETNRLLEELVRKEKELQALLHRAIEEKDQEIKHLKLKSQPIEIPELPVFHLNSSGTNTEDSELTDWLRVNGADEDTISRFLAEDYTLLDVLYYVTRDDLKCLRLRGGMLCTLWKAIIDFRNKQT

T2: wild type CAD (CAD-WT) (1-345), caspase-activated deoxyribonuclease, 35S-labelled (mouse, UniProt O54788 1-344, 35S label)
T2 construct: range 1-345; also called 35S-labeled CAD
T2 sequence (looked up): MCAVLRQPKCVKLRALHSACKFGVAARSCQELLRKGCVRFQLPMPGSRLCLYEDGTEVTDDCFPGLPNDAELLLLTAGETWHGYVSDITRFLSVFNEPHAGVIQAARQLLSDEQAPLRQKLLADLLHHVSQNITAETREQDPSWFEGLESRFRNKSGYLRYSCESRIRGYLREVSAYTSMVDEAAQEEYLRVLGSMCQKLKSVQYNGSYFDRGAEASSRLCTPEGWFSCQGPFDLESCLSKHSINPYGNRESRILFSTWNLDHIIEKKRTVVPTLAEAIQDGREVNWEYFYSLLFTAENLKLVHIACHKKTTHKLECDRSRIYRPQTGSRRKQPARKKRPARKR

B1: GST-CIA-CEN (CIA containing only amino acids 79 to 174) (other)
chain: AAFRQVQGSEISSIDEFCRKFRLDCPLAMERIKEDRPITIKDDKGNLNRCIADVVSLFITVMDKLRLEIRAMDEIQPDLRELMETMHRMSHLPPDF
notes: also called CIA mutant peptide deficient in both terminal regions; not shown: N-terminal GST of pGEX-4T-1 and its linker
B2: GST-CIA-ΔN (CIA deficient in N-terminal amino acids 1 to 78) (other)
chain: AAFRQVQGSEISSIDEFCRKFRLDCPLAMERIKEDRPITIKDDKGNLNRCIADVVSLFITVMDKLRLEIRAMDEIQPDLRELMETMHRMSHLPPDFEGRQTVSQWLQTLSGMSASDELDDSQVRQMLFDLESAYNAFNRFLHA
notes: Range follows from 'deficient in N-terminal amino acids 1 to 78' of the 221-residue protein; also called CIA-AN; N-terminal region-deleted CIA peptide; not shown: N-terminal GST of pGEX-4T-1 and its linker

What was measured:
[1] = molecular target: T1, ASK1 wild-type, full length (apoptosis …); experiment: GST pull-down on glutathione-agarose beads, 35S-labelled ASK1, SDS-PAGE
Protocol: After being immobilized onto glutathione-agarose beads, GST-CIA-WT and its deletion recombinant peptides were reacted with the […] [^35S] methionine-labeled ASK1 or its mutant peptides at 4° C. for 3 hours in a buffer (50 mM Tris, pH 7.5, 150 mM NaCl, 2 mM EDTA, 1 mM dithiothreitol, 0.1% NP-40 and 5 mg/ml BSA). After completion of the reaction, the glutathione-agarose beads were washed three times with a buffer (50 mM HEPES, pH 7.5, 150 mM NaCl, 1 mM EDTA, 1 mM dithiothreitol, 0.1% Tween 20). Next, ^35S-labeled peptides were eluted from the glutathione-agarose beads and analyzed by SDS-PAGE.

[2] = molecular target: T2, wild type CAD (CAD-WT) (1-345), …; experiment: GST pull-down on glutathione-agarose beads, labelled CAD, SDS-PAGE
Protocol: In detail, wild type CIA (CIA-WT) and its deletion mutants, CIA-ΔN, CIA-ΔC and CIA-CEN, all of them prepared in Example 4, were immobilized onto glutathione-agarose beads and then applied to in vitro translated [^35S] methionine-labeled CAD. Meanwhile, wild type CAD (CAD-WT) (1–345) and its deletion mutants, CAD-ΔN deficient in a […] region (Δ1–83), CAD-NT containing N-terminal half only (Δ162–345), CAD-ΔC deficient in a C-terminal region (Δ290–345), were prepared by PCR and cloned to pLexA (Clonetech). After being isolated and purified from E. coli transformants harboring the expression vectors, the recombinant proteins CAD-WT, CAD-ΔN, CAD-NT and CAD-ΔC, were labeled with ^35S radioactive isotope, and then applied to the glutathione-agarose beads onto which GST-CIA was immobilized. The proteins bounded to the glutathione-agarose beads were eluted, and separated on a gel by SDS-PAGE.

Row | Binder | binding result [1] | binding result [2]
1 | B1 | no binding | no binding
2 | B2 |  | no binding
